Results on one molecule are retold here after patent publication US20110305732A1.

The assay deals with human Robo-1 (human) (UniProt Q9Y6N7). In words: cell-based or functional assay.
UniProt Q9Y6N7, sequence (Q9Y6N7 26-1651): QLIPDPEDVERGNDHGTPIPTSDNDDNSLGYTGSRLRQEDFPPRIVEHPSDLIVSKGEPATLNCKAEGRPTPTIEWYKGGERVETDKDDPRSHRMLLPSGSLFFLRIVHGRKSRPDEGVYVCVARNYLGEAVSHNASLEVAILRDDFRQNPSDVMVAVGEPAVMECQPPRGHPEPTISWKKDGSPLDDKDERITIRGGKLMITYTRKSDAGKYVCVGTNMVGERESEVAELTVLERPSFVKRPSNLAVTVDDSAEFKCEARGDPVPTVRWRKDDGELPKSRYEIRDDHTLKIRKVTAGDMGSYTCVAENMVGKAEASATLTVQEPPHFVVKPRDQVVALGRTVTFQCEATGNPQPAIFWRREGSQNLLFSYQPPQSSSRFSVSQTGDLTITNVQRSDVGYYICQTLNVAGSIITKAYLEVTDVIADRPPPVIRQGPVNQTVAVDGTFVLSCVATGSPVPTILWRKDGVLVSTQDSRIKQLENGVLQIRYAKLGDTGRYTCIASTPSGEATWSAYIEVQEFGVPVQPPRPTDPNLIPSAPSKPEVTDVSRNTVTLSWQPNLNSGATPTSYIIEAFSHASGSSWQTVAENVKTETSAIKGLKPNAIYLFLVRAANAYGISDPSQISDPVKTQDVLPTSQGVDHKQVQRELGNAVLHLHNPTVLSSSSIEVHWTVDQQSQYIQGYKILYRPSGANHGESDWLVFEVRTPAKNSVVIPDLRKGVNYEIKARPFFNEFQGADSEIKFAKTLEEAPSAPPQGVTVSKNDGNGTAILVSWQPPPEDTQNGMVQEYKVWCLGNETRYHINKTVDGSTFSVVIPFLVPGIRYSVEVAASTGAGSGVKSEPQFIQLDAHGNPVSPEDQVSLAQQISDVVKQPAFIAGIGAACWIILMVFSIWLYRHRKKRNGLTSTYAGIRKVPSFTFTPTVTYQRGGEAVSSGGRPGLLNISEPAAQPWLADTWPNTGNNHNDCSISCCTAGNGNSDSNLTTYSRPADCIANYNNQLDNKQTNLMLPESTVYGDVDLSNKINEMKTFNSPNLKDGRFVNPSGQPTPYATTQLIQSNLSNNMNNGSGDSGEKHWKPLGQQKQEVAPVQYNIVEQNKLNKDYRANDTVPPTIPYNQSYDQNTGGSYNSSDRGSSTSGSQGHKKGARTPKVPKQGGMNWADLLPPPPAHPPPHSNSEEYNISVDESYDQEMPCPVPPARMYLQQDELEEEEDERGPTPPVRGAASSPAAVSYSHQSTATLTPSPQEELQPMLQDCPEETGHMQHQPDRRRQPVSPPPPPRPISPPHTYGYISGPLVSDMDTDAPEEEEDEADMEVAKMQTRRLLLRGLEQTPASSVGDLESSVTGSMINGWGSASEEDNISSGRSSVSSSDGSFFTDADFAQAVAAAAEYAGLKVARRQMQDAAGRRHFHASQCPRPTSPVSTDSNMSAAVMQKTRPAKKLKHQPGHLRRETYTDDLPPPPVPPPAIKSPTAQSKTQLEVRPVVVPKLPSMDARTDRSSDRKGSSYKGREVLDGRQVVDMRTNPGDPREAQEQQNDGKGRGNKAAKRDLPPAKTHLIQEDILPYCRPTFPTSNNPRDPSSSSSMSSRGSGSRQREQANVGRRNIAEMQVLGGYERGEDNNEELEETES

B1: full length human Slit2 (ligand, UniProt O94813-3 31-1521, looked up)
chain: QCSCSGSTVDCHGLALRSVPRNIPRNTERLDLNGNNITRITKTDFAGLRHLRVLQLMENKISTIERGAFQDLKELERLRLNRNHLQLFPELLFLGTAKLYRLDLSENQIQAIPRKAFRGAVDIKNLQLDYNQISCIEDGAFRALRDLEVLTLNNNNITRLSVASFNHMPKLRTFRLHSNNLYCDCHLAWLSDWLRQRPRVGLYTQCMGPSHLRGHNVAEVQKREFVCSGHQSFMAPSCSVLHCPAACTCSNNIVDCRGKGLTEIPTNLPETITEIRLEQNTIKVIPPGAFSPYKKLRRIDLSNNQISELAPDAFQGLRSLNSLVLYGNKITELPKSLFEGLFSLQLLLLNANKINCLRVDAFQDLHNLNLLSLYDNKLQTIAKGTFSPLRAIQTMHLAQNPFICDCHLKWLADYLHTNPIETSGARCTSPRRLANKRIGQIKSKKFRCSGTEDYRSKLSGDCFADLACPEKCRCEGTTVDCSNQKLNKIPEHIPQYTAELRLNNNEFTVLEATGIFKKLPQLRKINFSNNKITDIEEGAFEGASGVNEILLTSNRLENVQHKMFKGLESLKTLMLRSNRITCVGNDSFIGLSSVRLLSLYDNQITTVAPGAFDTLHSLSTLNLLANPFNCNCYLAWLGEWLRKKRIVTGNPRCQKPYFLKEIPIQDVAIQDFTCDDGNDDNSCSPLSRCPTECTCLDTVVRCSNKGLKVLPKGIPRDVTELYLDGNQFTLVPKELSNYKHLTLIDLSNNRISTLSNQSFSNMTQLLTLILSYNRLRCIPPRTFDGLKSLRLLSLHGNDISVVPEGAFNDLSALSHLAIGANPLYCDCNMQWLSDWVKSEYKEPGIARCAGPGEMADKLLLTTPSKKFTCQGPVDVNILAKCNPCLSNPCKNDGTCNSDPVDFYRCTCPYGFKGQDCDVPIHACISNPCKHGGTCHLKEGEEDGFWCICADGFEGENCEVNVDDCEDNDCENNSTCVDGINNYTCLCPPEYTGELCEEKLDFCAQDLNPCQHDSKCILTPKGFKCDCTPGYVGEHCDIDFDDCQDNKCKNGAHCTDAVNGYTCICPEGYSGLFCEFSPPMVLPRTSPCDNFDCQNGAQCIVRINEPICQCLPGYQGEKCEKLVSVNFINKESYLQIPSAKVRPQTNITLQIATDEDSGILLYKGDKDHIAVELYRGRVRASYDTGSHPASAIYSVETINDGNFHIVELLALDQSLSLSVDGGNPKIITNLSKQSTLNFDSPLYVGGMPGKSNVASLRQAPGQNGTSFHGCIRNLYINSELQDFQKVPMQTGILPGCEPCHKKVCAHGTCQPSSQAGFTCECQEGWMGPLCDQRTNDPCLGNKCVHGTCLPINAFSYSCKCLEGHGGVLCDEEEDLFNPCQAIKCKHGKCRLSGLGQPYCECSSGYTGDSCDREISCRGERIRDYYQKQQGYAACQTTKKVSRLECRGGCAGGQCCGPLRSKRRKYSFECTDGSSFVDEVEKVVKCGCTRCVS
The molecule B1 displayed an average platelet surface area coverage on collagen at shear flow rate 1900 sec^-1 of 3.1%, an average surface area covered by platelets on collagen at shear flow rate 1000 sec^-1 of 1.3%, a mean platelet surface area on fibrinogen after 30 min (platelet spreading) of 20.9 µm^2 and a mean surface area of platelets on collagen after 30 min (platelet spreading) of 13.5 µm^2. This molecule also yielded a mean surface area of platelets on fibronectin after 30 min (platelet spreading) of 19.3 µm^2, a percentage of platelets expressing cell-surface CD62P after ADP stimulation of 13.2% and a phosphorylation of Akt during platelet spreading on fibrinogen (fold over basal 1.0) (fold over basal) of 2.8.
